Test: soluble on expression in E. coli; label from the status in PepcDB or PDB records

| Sequence | soluble on expression in E. coli |
| --- | --- |
| QRRQMEMQSVNLVHEALSNQRLELFAQRVMNLQSPESLMYFEILVRIRDAQGNYVSPAIFIPASERYNIAHWIDKQVINQALEWFEQRPDVVEKLGRCSINLSGQSMGNQEFIDFLFERLKNSTMPCEKICLEITETAAMGNLDQAIDFFTRAKSLGCMIALDDFGSGLSSFGYLKKLPVDIVKIDGLFVRDIDVNEMDRVMVRSINDLAKQLGKVTVAEFVENEQVMQHLIDLGVDYGQGYGIGHPKPLAELVENLSSL | not soluble |
| MSQLDNNLSVSVYMKGNVNNHEFEYDGIGGGDPNSGQFSLKTKLRGGKPLPFSYDIITMGFQYGFRAFTKYPEGIADYFKGSFPEAFQWNRRIEFEDGGVINMSSDITYKDKVLHGDVWALGVNFPPNGPVMKNEIVMEEPAEETLTAKNGVLVGFCPKAYLLKDGSYYYGHMTTFYRSKKSGQPLPGFHFIKHRLVKTKVEPGFKMVEQAEYATAHVCDLPKPN | soluble |
| MIKSYKIRGTSLTVNRSDSYPDACNWTADSFGMLFYDPEYDLSTESLSITLDAGNDWVPEGGLVYESLPVKVTYENPEMMDYGTDWFNQGYSALGWNGEEYAYLGTDRGIVNILLEEDEKILYPNEEYDLKEGYTLKVTDLASDKACLTLSRNKLPVYSSIISPGKSADLGTHTFLYKKELNGVEVPLFSVYVDSVIQGDELSAVNLKHLLHFSDSPLELNYGKEYGELTIVETYPKLRLENKHVVWSGSDINVTEDIWIGRFEKKTAGNLFVLEHHHHHH | soluble |
| METNMTFVLKEFDALKSHFNDTVKIILQREKKDKIEDLPNPRKEELQFLTAVLNQLEAKIDELKPRSLASYVHVFYGAMLLVCKDVENNLRVMEKKENSLLFTRLMDGMGISDENIPTSEQNIMFYRGLNKFLNFIYESNDSRKGLKKEHFLQVLSLKKIYSLAKLSYEQEEAAENNALAKLTADGKTKANANSFHVEKPIDSSIVEQFKSWDEMKGALHQLILDELSDKNVAKISALSQARSAQLKFLQTMAEQLDKIPNQSLEPSEKMAILAGAMYIVRGQIAQEYGKDPLSNDKISATVIHTGLSTILHANADCCEDKEVLIAAANKFIRHMVIERPEQSNKKITKESVRENNMFSDIAGFQLISVLTLIQNMIKTCRTDAIEACVTKRKEELEALKPKKEGYSIASSVTGYVGSWFKKAPSMSEEDEEDDLKDQNTAEETSKPTV | not soluble |
| MGSDKIHHHHHHMKKTIILSDENYYSQEADLAYMSVSQYKKFLECEAAALAKLKGEWTPENDPKALLVGNYVHSYFESPEIHEAFKEENKSKMFSSRKPFGLLKDFQIAEQMIERLKQEEAFLNIYQGEKEVIVTGEIGGAMWKGKIDCLNLEEKYFVDIKTTKDMHEKKWDERLNRKANFIERFGYVLQMAVYCELLRQQYDKIFLPLIAAVSKQTPSEAKLITLSEEKMIYELEELKENIEHVVRVKNGEEEPVSCGICEYCRGHNKITNFTSMDDL | not soluble |
| MDNKLSKIPTETFGEYIKRIRELRGYSQRKLSTLSDLSNTTICRIEKGSENGIENPDAETVVKLAEGLKLEKKALLIAAGYLDNENVEETTDLKECIRIALQKLGWINSYNDINEETITYVEFLLKKYGNKYKQIP | not soluble |
| MGSDKIHHHHHHMTVEPLHILHLISTSGLFGAERVLLELASQSRSLGMHVTVAALKNSRNPNTELAEAARGAGLPTLVVPCGGRFDAGVVGILTEEIRKSGTQIIHSHNYKSNYYARQAAELSGARWIVTNHGRRAGFKLFLYALLDAMLVRKADRVVAVSPKIADRLAVLGIGRDGLSVIDNGVDFSRFESLPTKADAGNVLGVAGSSYVIGTVGALTEEKGHRHLLQAVKSVRKSIPNVVCVVVGDGPERRRLEQLAREEGIEQTAIFTGKRDDVPSILPRFDLFVLPSLSEGLPMALLEAQAAKVPAIATNVGAIATVINNGVTGVVVSPGDVPALAEAIIRSHDEADKARCMALKGYERVKVHYSADTMAQRYIEIYRGMIGAGGAIG | not soluble |
| MAFKNTKTLVFVLDGKLRNIPIAALFDGQQYLIEKYAVALSPGLQLMAAQSLEQNKIKAIVAGISESRSGFAALPAVESEVKQISQTIPSSMLLNQKFTSQALADRIKSSRADVVHLATHGQFSSRIEDTFLLTWDGQVNVKDLSELLKNRSGDSSKAIELLVLSACDTATGDDRAVLGLAGLAVKSGARSTIATLWPVKDKAAEMLMTRFYDQLRKPKITKAEALRQAQINLIHQTDFQDPFFWSAFVLVGNWLLEHHHHHH | not soluble |
| MSLQIQNLTKQFGESKAVNSLQISLPKGEVLGLLGRNGAGKTTTIKMLLGLLTPNEGSITWDGKTFGTSGVTIGYLPEERGLYTKSRVIDQLRYFGRLEGMAKKEVDLAIDHWLDRLAIPEYKFKTAGELSKGNQQKIQLIAALLHNPELLILDEPFSGLDPVNAGMLASIIEEQVQSGKTIILSSHRMEQVEAFCQHVCILKKGEAVVKGQLSDIKKEYGFRNLTIEDTEENEKGLQAIHVSYEKQQGLLYVKVQDDAEALNILQQLQEQGVTLRQFKMLEPTLNEIFVERAK | not soluble |
| HGPEGTVEIETVKLARSVFSKLHEICCSWVKDFPLRRRPQLYYETSIHAIKNMRRKMEDKHVCIPDFNMLFNLEDQEEQAYFAVFDGHGGVDAAIYASIHLHVNLVRQEMFPHDPAEALCRAFRVTDERFVQKAARESLRCGTTGVVTFIRGNMLHVAWVGDSQVMLVRKGQAVELMKPHKPDREDEKQRIEALGGCVVWFGAWRVNGSLSVSRAIGDAEHKPYICGDADSASTVLDGTEDYLILACDGFYDTVNPDEAVKVVSDHLKENNGDSSMVAHKLVASARDAGSSDNITVIVVFLRDMNKVRASSPSPL | soluble |
| MSKKFVNKAEEAVDDALFGLVSSNSNVKFHKSCRRVVHITDLNPSHHVSLIAGGGSGHEPYAAGYVGKGLLTAAIAGNVFASPPSRNVQAALEATRGEAGAILFVINYTGDRLNFGLAAERFNASGGTARVVTIADDVAIDSPNSKVGRRGLAGAVLTIKIAGAMAWEGKSLDEIYETSQKVVSSMGTLGVSLYTGSLPGKNRETELPDDQIEVGLGIHGEPGKFRAQFGSANRIVHSLLDTLRSKMEMREGEKFVVLVNNLGSVSQLEMNIVNGEVLRYFEDHKIGITRFFSGIYMTSLDGHGVSVTILRADDSMLQYLDAPAAAPGWIPALSVQKCVDHQEISDSSSQGDLISEIPASGVTVNAQLVEACVGGVVDAMLESEKHLNQLDAYAGDGDCGSTFAGAAEAIRKQTSGLNYTHPETLLKQLSIIFEQTVGGTSGALYALMFSSAAQSFAQRSQRGEKIDRTSILEALDKANRAVQKYGGARVGDRTMVDGLDAMVEELRKGFSGNEESLDAIFEAAVKASEKAAKATASQTATVGRASYTSSEAQTKPDAGATAISLWLRACWTAYKSEK | not soluble |
| MLSSTCTAAVRGLSTTAQLSKINNVTIIGAGLMGSGIAQVSANAKLNVTVVDSNQSALEKAQQGIANSLKRVAKKKHADDAAAQTALVSSVLDRIKMSTNVSDSVKDADLVIEAIVENIDIKRKLFAEVEVAAKPTTLITTNTSSLRLADIGLNLKDKSRFGGLHFFNPVPMMKLLEVVRHTETSDATFNQLVDYGKTVGKTTVACKDTPGFIVNRLLVPYMFEALRLYERGDASMEDIDVAMKLGAGYPMGPFELSDYVGLDTCKFIMDGWHAQYPEEVAFTPSPLLNSLVDSGKNGRKSGEGFYKYK | not soluble |
| MSITYSAISFSGFSPKSVPFAIHSVTRRQFLNPNTFYRFGFSPSLQGSSIEFSLQLNSRVVLSKERRSLPLVVRNDRPQNEDLPKQYTRREKKPFPVPIVDLRRAARERVKNNKDKPKRPLPPPKNGMVVKSLVPLAYKVYNARIRLINNLHRLMKVVRVNACGWCNEIHVGPYGHPFKSCKGPNTSQRKGLHEWTNSVIEDVIVPLEAYHLFDRLGKRIRHDERFSIPRVPAVVELCIQGGVEIPEFPAKRRRKPIIRIGKSEFVDADETELPDPEPQPPPVPLLTELPVSEITPPSSEEETVSLAEETLQAWEEMRAGAKKLMRMYRVRVCGYCPEVHVGPTGHKAQNCGAFKHQQRNGQHGWQSAVLDDLIPPRYVWHVPDVNGPPMQRELRSFYGQAPAVVEICAQAGAVVPEHYRATMRLEVGIPSSVKEAEMVV | soluble |
| MSLKELEEIRKEIDEVDKIITELFEKRMNLVMEVAEYKEKNSIPVSDSKREKKVIDKNIGYLKNKEYSEVLKEFYINFMNLSKKLERKRIYNEEKTSVNTSIYGLIGEKLGHSHSSYIHKLIFEKVGIKGIYNLFEVPKEKLKESVDTFKIIKCGGLNVTIPYKVEVMKELYEISEKARKIGAVNTLKFSREGISGFNTDYIGFGKMLSKFRVEIKNNICVVLGSGGAARAVLQYLKDNFAKDIYVVTRNPEKTSEIYGEFKVISYDELSNLKGDVIINCTPKGMYPKEGESPVDKEVVAKFSSAVDLIYNPVETLFLKYARESGVKAVNGLYMLVSQAAASEEIWNDISIDEIIVDEIFEVLEEKIKSEGHHHHHH | soluble |
| GPGSMVRRNNKSTESTIVFTRGAGDNSLWDDADLIRLWNAQLEEDQCEKAEDEAPVPSTVSEDGSLITTEDDEVAESEQKSSLRSFQSGQREAGVASAIVTAAPINASVAPVVLHQSMFDRLPADIRQLLVAYFNAGYEAGYFVGKRDGSSKVGGKRARGE | not soluble |
| MGVDPSVKVEYKAPTVTYDQVGFMSKSTLMTHEQLISVRSAKVRQSVKITVKEQIPKSHDDKIKVSIVSPEIKSSSSSKNSSPPDARLNKDHNLEWCVILAPGQHRLLPVRYTIEHPASESLSYKFN | not soluble |
| PAWWGERAHPISEGGRGSAWFVEASFGNAVLRQYRRGGMIAMLNRDRYFWCGGHRTRSVLEFRLMRELISRGLPVPTPLAACYVRHGVQYRAAILMERLEGVSSLAMCVRGNSKEIHWEQIGRMISRFHREGLDHADLNAHNILLDQAGQCWLIDFDRGALRIPATKWREHNLARLLRSLLKIRGERSVDAVYRDFERLCRAY | not soluble |
| MGSDKIHHHHHHMIKIAIVGFGTVGQGVAELLIRKREEIEKAIGEFKVTAVADSKSSISGDFSLVEALRMKRETGMLRDDAKAIEVVRSADYDVLIEASVTRVDGGEGVNYIREALKRGKHVVTSNKGPLVAEFHGLMSLAERNGVRLMYEATVGGAMPVVKLAKRYLALCEIESVKGIFNGTCNYILSRMEEERLPYEHILKEAQELGYAEADPSYDVEGIDAALKLVIIANTIGVKASYEDVEVTGITQITPEAFQVAAEKGYTIRLIAEVSREKLKVSPRLVPFHHPLAIKGTMNAAMFKTDTAGSIFVAGRGAGKEETASAILSDLYEIYAGPR | not soluble |
| MRVSLFLQKQIIECSKAFQPHSTRLQWPKSQDKVFVAMSGGVDSSFSAYLLKSQGYNVEGVFMRNWLDEDSAPSGCPAERDWATVQKVCKKLNISCRRFNFEKEYWNLVFEPSLDLYENGLTPNPDVSCNRQVKFGALFDALKKHCENNVKGDWWLASGHYAKSVVNIETNESHMCIPTDKRKDQTLFLCTIRKEALEKTIFPLHNWTKENVKKQASSAGFKEIAEKQESQGLCFVSPNVGRKFRKFLQRYLNFSDRPIKVIAGKNVVGEFSGNHGIWSLTVGERCGLSLPQAQSEYFGRWYVWKKDIKNNALYICRGTNNELLMSKCIYLKDWKWCGTKLQNLEKSALSCFVRVRHQQPLQPAKVTWRNPESVKIHFQDKQRAVTPGQVIAVYVNDVCLGGGMVDTVEPEKDFD | soluble |

From the DeepSol protein solubility set
